What all share (format): cell-based, human
Test [1] concerns IGF-1 pathway in MDA-MB-231 cells. In words: IGF-1 pathway activation (Western blotting) after klotho protein over-expression. The conditions noted are these: IGF-1 12.5 nM, 15 min, data not shown. Here is the method: (§1) For breast cells, cells were harvested and lysed for total protein extraction in RIPA buffer (50 mM Tris-Cl pH 7.4, 150 mM NaCl, 1% NP-40, 0.25% Na-deoxycholate, 1 mM EDTA, 1 mM NaF) together with a protease inhibitor cocktail (Sigma). 50 μg protein extracts were loaded on 10% polyacrylamide gels, separated electrophoretically and blotted from the gel onto nitrocellulose membrane (Schleicher & Schuell Bioscience GmbH, Dassel, D E). The membranes were then immunoblotted with the indicated antibodies.
(§2) MDA-MB-231 cells, which express lower levels of these receptors, were also examined. HEK 293 cells, whose growth is not dependent on the IGF-1 pathway (El-Shewy et al., 2007) and is not inhibited by klotho protein, served as control.
(§3) In further experiments, MCF-7, MDA-MB-231 or HEK-293 cells were transfected with either pcDNA3-HA-KL or empty vector and treated with IGF-1 (12.5 nM, 15 min).

For test [2], the system named is IGF-1 pathway in HEK 293 cells. Described as above. The conditions noted are these: IGF-1 12.5 nM, 15 min. Here is the method:
as §1, §2, §3

Test [3] relates to Colo357, MiaPaCa2, and Panc1. Briefly: Colony formation assay of pancreatic carcinoma cell lines transfected with klotho protein vector. The conditions noted are these: pcDNA3-HA-KL vs empty vector; G418 two weeks. Here is the method:
Two days following transfection with the indicated plasmids, G418 (900 μg/ml for Panc1, 1000 μg/ml for MiaPaCa2 and 750 μg/ml for Colo357, HEK-293 and BON1) was added to the culture media. At day 14, cells were stained using crystal violet (Sigma-Aldrich) and quantitated as described (Wolf et al., 2008).
For the colony formation assay, pancreatic carcinoma cell lines Colo357, MiaPaCa2, and Panc1 were transfected with either a HA-tagged klotho protein expression vector (pcDNA3-HA-KL) or an empty vector (pcDNA3). Transfected cells were cultured in media containing G418 for two weeks. Colonies were stained with crystal violet and photographed.

For a further test, the system named is p53 levels in HEK 293. Briefly: Immunoblot of p53 and PARP after klotho protein over-expression. Here is the method: as §1
(§4) In fibroblasts, klotho protein reduces senescence through down-regulation of p53 (de Oliveira, 2006). The effects of klotho protein on p53 levels in MCF-7 breast cancer cells and HEK 293 were therefore analyzed.
Background: Immunoblotting shows a protein as a band on a membrane.

The test system of test [4] is p53 levels in MCF-7 cells. The description is as above. Here is the method: as §1, §4
Another test has as its system MCF-7 cells. In words: IGF-1-induced MCF-7 proliferation after klotho protein transfection. The conditions noted are these: HA-KL-transfected cells, 0.5% serum, IGF-1 24-96 hr; control pcDNA3 cells up to 40%. Here is the method:
The medium was aspirated, and the cells were dissolved by dimethyl sulfoxide (DMSO).
Klotho protein is known to inhibit activation of the IGF-1 pathway in L6 myoblasts cells and rat hepatoma H4IIE cells (Kurosu et al., 2005). This pathway plays an important role in breast cancer tumorigenesis, and IGF-1 induces MCF-7 cell proliferation (Geier et al., 1995; Yee, 2006). In order to test the ability of klotho protein to modulate IGF-1-induced proliferation and survival, MCF-7 cells were transiently transfected with either pcDNA3 or pcDNA3-HA-KL, and grown in 0.5% serum with either IGF-1 or a control vehicle for 24-96 hr.

The subject of test [5] is IGF-1 pathway in Panc1 cells. Briefly: IGF-1 pathway in Panc1 cells after klotho protein over-expression (immunoblot). The conditions noted are these: IGF-1 12.5 nM, 15 min. Here is the method:
For pancreatic cells, protein extraction and Western blotting was performed as described (Wolf et al., 2008).
Panc1 cells were transfected with either klotho protein-HA expression plasmid (KL-HA) or a control vector (pcDNA3). After 24 hrs, cells were serum starved for 48 hr and treated with IGF-1 (12.5 nM, 15 min). Following treatment, cells were harvested and proteins were resolved and immunoblotted using antibodies directed against phosphorylated (p) and total (t) IGF-1R, p- and t-AKT, p- and t-ERK1/2.

For test [6], the system named is insulin pathway in HEK 293 cells. In words: Insulin pathway activation after klotho protein over-expression. The conditions noted are these: insulin stimulation.

B1: klotho protein: full length mouse Klotho (SEQ ID NO. 3) over-expressed in cells from HA-tagged expression vector pcDNA3-HA-KL (protein)
chain: MLARAPPRRPPRLVLLRLLLLHLLLLALRARCLSAEPGQGAQTWARFARAPAPEAAGLLHDTFPDGFLWAVGSAAYQTEGGWRQHGKGASIWDTFTHHSGAAPSDSPIVVAPSGAPSPPLSSTGDVASDSYNNVYRDTEGLRELGVTHYRFSISWARVLPNGTAGTPNREGLRYYRRLLERLRELGVQPVVTLYHWDLPQRLQDTYGGWANRALADHFRDYAELCFRHFGGQVKYWITIDNPYVVAWHGYATGRLAPGVRGSSRLGYLVAHNLLLAHAKVWHLYNTSFRPTQGGRVSIALSSHWINPRRMTDYNIRECQKSLDFVLGWFAKPIFIDGDYPESMKNNLSSLLPDFTESEKRLIRGTADFFALSFGPTLSFQLLDPNMKFRQLESPNLRQLLSWIDLEYNHPPIFIVENGWFVSGTTKRDDAKYMYYLKKFIMETLKAIRLDGVDVIGYTAWSLMDGFEWHRGYSIRRGLFYVDFLSQDKELLPKSSALFYQKLIEDNGFPPLPENQPLEGTFPCDFAWGVVDNYVQVDTTLSQFTDPNVYLWDVHHSKRLIKVDGVVAKKRKPYCVDFSAIRPQITLLREMRVTHFRFSLDWALILPLGNQTQVNHTVLHFYRCMISELVHANITPVVALWQPAAPHQGLPHALAKHGAWENPHTALAFADYANLCFKELGHWVNLWITMNEPNTRNMTYRAGHHLLRAHALAWHLYDDKFRAAQKGKISIALQADWIEPACPFSQNDKEVAERVLEFDIGWLAEPIFGSGDYPRVMRDWLNQKNNFLLPYFTEDEKKLVRGSFDFLAVSHYTTILVDWEKEDPMKYNDYLEVQEMTDITWLNSPSQVAVVPWGLRKVLNWLRFKYGDLPMYVTANGIDDDPHAEQDSLRIYYIKNYVNEALKAYVLDDINLCGYFAYSLSDRSAPKSGFYRYAANQFEPKPSMKHYRRIIDSNGFLGSGTLGRFCPEEYTVCTECGFFQTRKSLLVFISFLVFTFIISLALIFHYSKKGQRSYK
modifications: HA tag
For the molecule B1, the “effect on IGF-1 pathway phosphorylation” value is “Smaller effects” in test [1] and “only minor effects” in test [2]. Besides, in test [3], the “number and size of surviving colonies” value is “significantly reduced”. Further, the “expression or cleavage of PARP” value (in the test with p53 levels in HEK 293; in test [4]) was “No changes” each time. Moreover, the results for the p53 levels result (in the test with p53 levels in HEK 293; in test [4]) were “reduce” and “increase”, respectively. Besides, the “increase of cell proliferation by IGF-1” value with MCF-7 cells amounted to 25%. In test [5], the “phosphorylation of IGF-1R, AKT1 and ERK1/2” value is “reduced phosphorylation”. Moreover, in test [6], the “activation of the insulin pathway” value is reported as “not”.
